Legend:
[1] = biological target: prostate specific membrane antigen (PSMA), full-length human (human) (UniProt Q04609); assay: fraction of radiolabeled mAb bound to excess cells, PSMA-3T3 (bracket: 3T3 control)
[2] = biological target: prostate specific membrane antigen (PSMA), full-length human (human) (UniProt Q04609); assay: fraction of radiolabeled mAb bound to excess cells, PSMA-3T3
[3] = biological target: prostate specific membrane antigen (PSMA), full-length human (human) (UniProt Q04609); assay: fraction of radiolabeled mAb bound to excess cells, average of runs
[4] = biological target: prostate specific membrane antigen (PSMA), full-length human (human) (UniProt Q04609); assay: cell-based or functional assay

Chain of prostate specific membrane antigen (PSMA), full-length human (human) (Q04609 whole entry): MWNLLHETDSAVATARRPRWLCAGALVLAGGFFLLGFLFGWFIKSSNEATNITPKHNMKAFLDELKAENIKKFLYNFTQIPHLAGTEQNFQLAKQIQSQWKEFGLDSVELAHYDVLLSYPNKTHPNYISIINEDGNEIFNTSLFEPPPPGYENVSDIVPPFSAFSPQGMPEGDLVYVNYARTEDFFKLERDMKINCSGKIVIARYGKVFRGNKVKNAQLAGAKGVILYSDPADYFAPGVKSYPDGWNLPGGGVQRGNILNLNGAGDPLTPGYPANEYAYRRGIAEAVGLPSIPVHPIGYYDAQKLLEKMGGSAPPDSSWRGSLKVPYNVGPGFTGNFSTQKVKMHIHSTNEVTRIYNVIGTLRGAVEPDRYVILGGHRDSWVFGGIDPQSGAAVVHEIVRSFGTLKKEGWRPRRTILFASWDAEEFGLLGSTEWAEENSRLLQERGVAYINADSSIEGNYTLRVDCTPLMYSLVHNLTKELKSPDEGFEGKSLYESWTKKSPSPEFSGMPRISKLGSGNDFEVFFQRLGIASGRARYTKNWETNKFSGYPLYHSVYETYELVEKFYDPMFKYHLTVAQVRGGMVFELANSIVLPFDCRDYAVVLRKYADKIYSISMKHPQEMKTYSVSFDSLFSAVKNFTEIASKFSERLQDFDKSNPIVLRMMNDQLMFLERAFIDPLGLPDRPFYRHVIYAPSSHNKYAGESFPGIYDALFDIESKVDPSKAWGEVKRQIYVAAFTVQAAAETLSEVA

Substance	Immunoreactivity (%) [1] [%]	Immunoreactivity (%) [2] [%]	Immunoreactivity (%), average [3] [%]	immunotoxin cytotoxicity (saporin-linked secondary antibody) on C4-2 cells, LD50 [4] [pM]	immunotoxin cytotoxicity (saporin-linked secondary antibody) on PSMA-3T3 cells, LD50 [4] [pM]
^111In mJ591 (In-111 labeled CHX-A''-DTPA mJ591) (antibody)	54.9	58.5	56.7	–	–
mJ591 (antibody)	–	–	–	88.2	89

Reference: patent US20140286859A1
